The text below walks through data of US20040006214A1.

This test addresses hepatitis C virus in patient serum. The test can be described thus: immobilized adsorbent shaken with HCV patient serum 37 C 2 h; HCV RNA in supernatant against saline control.

For “peptide having the amino acid sequence of 57 residues in the C3 domain of protein G with cysteine ad”, the Adsorption rate (%) was 28%. The same measure for “protein G (Pharmacia LKB) (from UniProt P19909 303-497)”: 82%.
